Assay results as given in patent publication EP4554620A1 (dated 2025).

How the values were obtained:
[1] = molecular target: T1, Human TIGIT residues 23-128 LEU65A mutant (human, UniProt Q495A1 23-128); test: SPR, TIGIT alanine mutants
T1 construct: not shown: C-terminal HIS tag
T1 chain: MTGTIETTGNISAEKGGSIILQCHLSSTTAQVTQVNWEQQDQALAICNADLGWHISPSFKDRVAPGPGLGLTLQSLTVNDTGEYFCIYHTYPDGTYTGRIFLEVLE

[2] = molecular target: T2, Human TIGIT residues 23-128 ILE68A mutant (human, UniProt Q495A1 23-128); test: SPR, TIGIT alanine mutants
T2 construct: not shown: C-terminal HIS tag
T2 chain: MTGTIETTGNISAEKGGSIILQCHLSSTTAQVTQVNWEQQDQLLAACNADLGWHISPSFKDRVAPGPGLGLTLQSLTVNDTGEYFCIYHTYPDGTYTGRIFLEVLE

B1: Tiragolumab (antibody, V domains shown)
VH: EVQLQQSGPGLVKPSQTLSLTCAISGDSVSSNSAAWNWIRQSPSRGLEWLGKTYYRFKWYSDYAVSVKGRITINPDTSKNQFSLQLNSVTPEDTAVFYCTRESTTYDLLAGPFDYWGQGTLVTVSS
VL: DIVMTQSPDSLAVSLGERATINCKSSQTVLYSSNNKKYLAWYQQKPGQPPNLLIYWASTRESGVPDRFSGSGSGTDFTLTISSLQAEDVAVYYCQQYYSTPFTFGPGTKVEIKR
fold lower binding affinity against WT TIGIT [1]: ~25 fold
fold lower binding affinity against WT TIGIT [2]: ~40 fold
